Reference: article PMC7069805

Target: MD39 stabilized gp140 HIV Env trimer (HIV)
Assay: SEC-MALS

Q: Which stoichiometry N does the source give for “MD39 stabilized gp140 HIV Env trimer (domain or fragment)” here?
A: 3
